The text below walks through data of US20100034834A1.

Experiment [1] addresses NY-ESO-1 peptide … presented on peptide-pulsed T2 cells (UniProt P61769). Kind of experiment: cell-based or functional assay.
For experiment [2], the target named is g9-154 (gp100) peptide … presented on peptide-pulsed T2 cells (UniProt P61769). Description: cell-based or functional assay.

Some results are limits rather than exact numbers.

Turning to “1G4 mut1 (G70A): WT 1G4 alpha chain + beta chain G70A (TCR)”, the values for the IFN-γ secreted by transfected CD4+ T cells (Patient) with peptide-pulsed T2 cells in experiment [1] and in experiment [2] were 6380 pg/mL and below 30 pg/mL, respectively. Moreover, the IFN-γ secreted by transfected CD8+ T cells (Patient) with peptide-pulsed T2 cells in experiment [1] was 10200 pg/mL; in experiment [2], below 30 pg/mL.

For the substance “1G4 mut2 (A71I): WT 1G4 alpha chain + beta chain A71I (TCR)”, the IFN-γ secreted by transfected CD4+ T cells (Patient) with peptide-pulsed T2 cells in experiment [1] is 8970 pg/mL; in experiment [2], below 30 pg/mL. In addition, the IFN-γ secreted by transfected CD8+ T cells (Patient) with peptide-pulsed T2 cells in experiment [1] is 10100 pg/mL; in experiment [2], below 30 pg/mL.

Take “1G4 mut3 (G70A/A71I): WT 1G4 alpha chain + beta chain G70A/A71I (TCR)”: in experiment [1], the IFN-γ secreted by transfected CD4+ T cells (Patient) with peptide-pulsed T2 cells was found to be 10700 pg/mL and the IFN-γ secreted by transfected CD8+ T cells (Patient) with peptide-pulsed T2 cells is 8860 pg/mL. In experiment [2], this substance displayed an IFN-γ secreted by transfected CD4+ T cells (Patient) with peptide-pulsed T2 cells below 30 pg/mL and an IFN-γ secreted by transfected CD8+ T cells (Patient) with peptide-pulsed T2 cells below 30 pg/mL.
